By Kd is commonly meant the constant that tells how readily two partners part at equilibrium.

In this experiment the target is human recombinant IR-A extracellular domain (Met 1-Lys 944) with C-terminal polyhistidine tag (human, UniProt P06213-2 28-944). Put plainly: ELISA. A general note: In an ELISA, binding on a coated surface is turned into a signal by an enzyme label.

B1: human recombinant decorin protein core (natural protein, UniProt P07585 31-359, looked up)
chain: DEASGIGPEVPDDRDFEPSLGPVCPFRCQCHLRVVQCSDLGLDKVPKDLPPDTTLLDLQNNKITEIKDGDFKNLKNLHALILVNNKISKVSPGAFTPLVKLERLYLSKNQLKELPEKMPKTLQELRAHENEITKVRKVTFNGLNQMIVIELGTNPLKSSGIENGAFQGMKKLSYIRIADTNITSIPQGLPPSLTELHLDGNKISRVDAASLKGLNNLAKLGLSFNSISAVDNGSLANTPHLRELHLDNNKLTRVPGGLAEHKYIQVVYLHNNNISVVGSSDFCPPGHNTKKASYSGVSLFSNPVQYWEIQPSTFRCVYVRSAIQLGNYK
B1: the Kd worked out at 7.8 nM.

(Values after PMC4039619 (Matrix biology : journal of the International Society for …, 2014).)
